Measured values published in PMC3173040 (Nature structural & molecular biology, 2011).

Molecular target: the molecule itself
Assay: SEC-MALS

B1: VopL fragment 130-484 (3W-VCD) (domain or fragment, Vibrio parahaemolyticus, UniProt Q87GE5 130-484, looked up)
chain: SVNEDHSKLMEQIRQGVKLKSATKSLSADKSSADAHSKLMEELLTGGRKLKKVATSDIPAPPPLPSASTSKSPDSRNALLSEIAGFSKDRLRKTGSLETLNSSQSKDKESFEPTTHERLLSEDLFKQSPKLSEQELDELANNLADYLFQAADIDWHQVISEKTRGLTTEEMAKSEHRYVQAFCREILKYPDCYKSADVASPESPKSGGGSVIDVALKRLQTGRERLFTTTDEKGNRELKKGDAILESAINAARMAISTEEKNTILSNNVKSATFEVFCELPCMDGFAEQNGKTAFYALRAGFYSAFKNTDTAKQDITKFMKDNLQAGFSGYSYQGLTNRVAQLEAQLAALSAKLS
stoichiometry N: 2
